Data: the supplement of paper PMC10065799, “High-throughput profiling of sequence recognition by tyrosine kinases and SH2 domains using bacterial peptide display” (eLife, 2023)

What was measured:
c-Abl (mouse) = test: phosphorylation enrichment, bacterial display (enrichment ratio); higher = better substrate or ligand; peptides without Tyr show the background
FGFR3 = FGFR3 (UniProt P22607); test: as above
EPHB1 = EPHB1 (UniProt P54762); test: as above
Fes = Fes (UniProt P07332); test: as above
Fyn = Fyn (UniProt P06241); test: as above
Chain of Fyn (P06241 whole entry, looked up): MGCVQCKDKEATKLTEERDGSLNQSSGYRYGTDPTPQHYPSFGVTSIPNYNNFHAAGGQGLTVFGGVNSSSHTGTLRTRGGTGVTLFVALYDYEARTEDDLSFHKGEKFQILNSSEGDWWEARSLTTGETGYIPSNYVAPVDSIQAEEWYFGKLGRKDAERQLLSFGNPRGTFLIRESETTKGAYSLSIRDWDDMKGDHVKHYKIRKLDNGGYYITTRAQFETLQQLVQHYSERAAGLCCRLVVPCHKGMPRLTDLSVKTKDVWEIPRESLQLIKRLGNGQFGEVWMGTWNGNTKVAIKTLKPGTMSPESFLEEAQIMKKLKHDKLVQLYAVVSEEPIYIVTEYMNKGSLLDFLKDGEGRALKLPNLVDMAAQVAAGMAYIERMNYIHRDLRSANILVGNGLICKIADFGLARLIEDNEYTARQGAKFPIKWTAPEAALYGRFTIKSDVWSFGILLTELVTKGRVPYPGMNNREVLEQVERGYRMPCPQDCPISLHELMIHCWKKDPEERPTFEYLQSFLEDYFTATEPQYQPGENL

Hck = Hck (UniProt P08631); test: as above
Chain of Hck (P08631 whole entry, looked up): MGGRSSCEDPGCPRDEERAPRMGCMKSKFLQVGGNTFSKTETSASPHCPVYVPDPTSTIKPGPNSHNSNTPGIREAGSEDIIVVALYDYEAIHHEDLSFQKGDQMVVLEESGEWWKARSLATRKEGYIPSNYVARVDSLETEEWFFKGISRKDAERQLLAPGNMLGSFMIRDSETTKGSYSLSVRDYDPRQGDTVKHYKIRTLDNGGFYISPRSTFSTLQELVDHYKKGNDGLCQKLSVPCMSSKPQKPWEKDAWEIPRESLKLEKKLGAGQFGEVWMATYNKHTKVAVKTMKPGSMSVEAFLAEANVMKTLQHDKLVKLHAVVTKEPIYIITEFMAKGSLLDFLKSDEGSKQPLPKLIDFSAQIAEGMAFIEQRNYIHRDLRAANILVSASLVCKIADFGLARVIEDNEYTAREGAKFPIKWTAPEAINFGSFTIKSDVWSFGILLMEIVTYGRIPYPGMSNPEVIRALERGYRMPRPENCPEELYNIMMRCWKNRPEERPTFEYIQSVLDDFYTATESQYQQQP

MERTK = MERTK (UniProt Q12866); test: as above
Chain of MERTK (Q12866 whole entry, looked up): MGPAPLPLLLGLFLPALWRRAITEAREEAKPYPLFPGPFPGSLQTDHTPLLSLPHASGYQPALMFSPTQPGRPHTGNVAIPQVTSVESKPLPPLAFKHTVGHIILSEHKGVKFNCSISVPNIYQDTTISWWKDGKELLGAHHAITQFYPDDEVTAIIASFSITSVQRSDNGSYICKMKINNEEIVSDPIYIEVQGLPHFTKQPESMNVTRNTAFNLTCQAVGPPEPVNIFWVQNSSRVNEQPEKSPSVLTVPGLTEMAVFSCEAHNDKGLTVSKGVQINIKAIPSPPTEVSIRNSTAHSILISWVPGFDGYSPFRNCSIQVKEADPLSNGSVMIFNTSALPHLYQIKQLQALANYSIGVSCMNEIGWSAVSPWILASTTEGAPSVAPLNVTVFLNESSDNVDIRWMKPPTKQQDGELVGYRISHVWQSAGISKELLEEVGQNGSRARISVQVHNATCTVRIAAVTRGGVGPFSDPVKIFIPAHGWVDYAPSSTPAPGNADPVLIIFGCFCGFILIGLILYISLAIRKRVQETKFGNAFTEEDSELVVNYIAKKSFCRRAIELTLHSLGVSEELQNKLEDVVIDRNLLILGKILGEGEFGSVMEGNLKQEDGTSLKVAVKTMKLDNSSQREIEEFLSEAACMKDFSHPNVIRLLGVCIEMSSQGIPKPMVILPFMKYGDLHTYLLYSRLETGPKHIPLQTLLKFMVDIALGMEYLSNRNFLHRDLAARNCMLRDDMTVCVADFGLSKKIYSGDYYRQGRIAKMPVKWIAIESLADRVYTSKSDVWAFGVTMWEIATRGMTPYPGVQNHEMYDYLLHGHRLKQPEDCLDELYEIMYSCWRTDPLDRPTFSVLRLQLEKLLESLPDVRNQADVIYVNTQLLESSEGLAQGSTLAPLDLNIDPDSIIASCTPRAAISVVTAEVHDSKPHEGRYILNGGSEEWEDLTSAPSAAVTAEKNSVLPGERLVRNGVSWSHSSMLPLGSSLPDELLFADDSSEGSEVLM

Fer (mouse) = test: as above
EPHB2 = EPHB2 (UniProt P29323); test: as above
Chain of EPHB2 (P29323 whole entry, looked up): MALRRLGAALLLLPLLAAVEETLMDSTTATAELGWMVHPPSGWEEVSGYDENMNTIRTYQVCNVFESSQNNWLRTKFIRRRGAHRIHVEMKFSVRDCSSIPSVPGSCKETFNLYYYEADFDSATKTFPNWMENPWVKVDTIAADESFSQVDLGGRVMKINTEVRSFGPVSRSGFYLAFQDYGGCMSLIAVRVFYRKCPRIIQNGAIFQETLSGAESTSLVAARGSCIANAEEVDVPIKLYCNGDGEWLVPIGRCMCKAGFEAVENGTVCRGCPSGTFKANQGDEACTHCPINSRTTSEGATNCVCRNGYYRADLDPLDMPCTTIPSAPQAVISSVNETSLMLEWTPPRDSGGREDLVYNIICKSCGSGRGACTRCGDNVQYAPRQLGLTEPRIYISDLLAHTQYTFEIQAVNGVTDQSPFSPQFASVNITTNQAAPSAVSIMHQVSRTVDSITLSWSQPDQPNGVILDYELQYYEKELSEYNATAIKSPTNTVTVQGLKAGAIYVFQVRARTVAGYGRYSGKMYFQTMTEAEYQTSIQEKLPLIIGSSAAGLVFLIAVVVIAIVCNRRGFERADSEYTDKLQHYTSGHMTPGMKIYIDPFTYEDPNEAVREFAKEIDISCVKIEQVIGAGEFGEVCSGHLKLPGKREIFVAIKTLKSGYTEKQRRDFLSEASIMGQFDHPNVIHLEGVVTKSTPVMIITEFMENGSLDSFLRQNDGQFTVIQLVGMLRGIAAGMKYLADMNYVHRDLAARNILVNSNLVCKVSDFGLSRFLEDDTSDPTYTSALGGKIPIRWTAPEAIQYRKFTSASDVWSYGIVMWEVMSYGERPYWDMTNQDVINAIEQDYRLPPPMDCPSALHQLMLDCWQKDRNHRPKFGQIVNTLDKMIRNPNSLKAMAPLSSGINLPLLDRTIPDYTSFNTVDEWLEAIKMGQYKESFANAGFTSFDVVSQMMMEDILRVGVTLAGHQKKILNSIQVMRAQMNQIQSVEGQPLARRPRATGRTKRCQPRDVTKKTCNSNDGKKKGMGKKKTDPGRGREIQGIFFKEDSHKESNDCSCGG

c-Src = test: as above
AncSZ = test: as above
Jak2 = Jak2 (UniProt O60674); test: as above
Chain of Jak2 (O60674 whole entry, looked up): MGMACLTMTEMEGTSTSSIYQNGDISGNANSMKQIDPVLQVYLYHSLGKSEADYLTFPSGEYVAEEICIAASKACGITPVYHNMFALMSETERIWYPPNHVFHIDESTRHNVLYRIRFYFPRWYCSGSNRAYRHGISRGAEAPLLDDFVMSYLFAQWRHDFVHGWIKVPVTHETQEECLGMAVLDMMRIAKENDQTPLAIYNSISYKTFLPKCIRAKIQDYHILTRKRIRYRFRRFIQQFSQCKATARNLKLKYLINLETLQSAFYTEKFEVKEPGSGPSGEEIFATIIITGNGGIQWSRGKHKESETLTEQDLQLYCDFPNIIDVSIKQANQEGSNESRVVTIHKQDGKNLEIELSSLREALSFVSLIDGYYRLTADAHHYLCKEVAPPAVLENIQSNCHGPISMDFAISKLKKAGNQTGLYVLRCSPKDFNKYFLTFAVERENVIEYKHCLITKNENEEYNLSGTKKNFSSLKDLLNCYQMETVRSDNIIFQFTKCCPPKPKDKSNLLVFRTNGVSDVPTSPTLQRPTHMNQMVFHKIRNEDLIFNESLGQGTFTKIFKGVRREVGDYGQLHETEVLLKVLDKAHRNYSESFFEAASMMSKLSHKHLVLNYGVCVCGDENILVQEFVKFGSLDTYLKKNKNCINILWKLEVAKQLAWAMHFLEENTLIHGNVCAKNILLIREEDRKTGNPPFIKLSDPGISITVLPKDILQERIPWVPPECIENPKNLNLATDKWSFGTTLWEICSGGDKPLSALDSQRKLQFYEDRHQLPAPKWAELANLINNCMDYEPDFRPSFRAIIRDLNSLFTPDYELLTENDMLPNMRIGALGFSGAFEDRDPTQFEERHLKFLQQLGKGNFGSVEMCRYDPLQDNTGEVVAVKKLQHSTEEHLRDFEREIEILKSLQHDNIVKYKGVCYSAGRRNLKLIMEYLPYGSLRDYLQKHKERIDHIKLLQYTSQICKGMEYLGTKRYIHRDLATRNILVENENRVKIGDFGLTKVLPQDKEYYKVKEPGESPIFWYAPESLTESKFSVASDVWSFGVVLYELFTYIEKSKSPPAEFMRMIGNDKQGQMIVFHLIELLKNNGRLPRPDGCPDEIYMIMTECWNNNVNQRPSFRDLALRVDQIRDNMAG

FGFR1 = FGFR1 (UniProt P11362); test: as above
Grb2 SH2 = Grb2 SH2 (UniProt P62993); test: SH2 binding enrichment of the phosphorylated peptide, bacterial display (enrichment ratio); higher = better substrate or ligand; peptides without Tyr show the background
SHP2-C SH2 = test: as above
c-Src SH2 = test: as above
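Wherever SH2 binding enrichment of the phosphorylated peptide, bacterial display is given: peptide library displayed on the E. coli surface as eCPX fusions, selected cells deep-sequenced, score is each peptide's frequency after selection divided by its frequency in the input.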
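Wherever phosphorylation enrichment, bacterial display is given: 11-residue human phosphosite peptides and single-mutation variants displayed on the E. coli surface, counted by deep sequencing, each peptide's frequency after selection divided by its frequency in the unselected input library; frequency after pTyr selection over input frequency; kinase dosed for 20-30% of maximal phosphorylation in three min.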

Chain of Fes (P07332 whole entry, looked up): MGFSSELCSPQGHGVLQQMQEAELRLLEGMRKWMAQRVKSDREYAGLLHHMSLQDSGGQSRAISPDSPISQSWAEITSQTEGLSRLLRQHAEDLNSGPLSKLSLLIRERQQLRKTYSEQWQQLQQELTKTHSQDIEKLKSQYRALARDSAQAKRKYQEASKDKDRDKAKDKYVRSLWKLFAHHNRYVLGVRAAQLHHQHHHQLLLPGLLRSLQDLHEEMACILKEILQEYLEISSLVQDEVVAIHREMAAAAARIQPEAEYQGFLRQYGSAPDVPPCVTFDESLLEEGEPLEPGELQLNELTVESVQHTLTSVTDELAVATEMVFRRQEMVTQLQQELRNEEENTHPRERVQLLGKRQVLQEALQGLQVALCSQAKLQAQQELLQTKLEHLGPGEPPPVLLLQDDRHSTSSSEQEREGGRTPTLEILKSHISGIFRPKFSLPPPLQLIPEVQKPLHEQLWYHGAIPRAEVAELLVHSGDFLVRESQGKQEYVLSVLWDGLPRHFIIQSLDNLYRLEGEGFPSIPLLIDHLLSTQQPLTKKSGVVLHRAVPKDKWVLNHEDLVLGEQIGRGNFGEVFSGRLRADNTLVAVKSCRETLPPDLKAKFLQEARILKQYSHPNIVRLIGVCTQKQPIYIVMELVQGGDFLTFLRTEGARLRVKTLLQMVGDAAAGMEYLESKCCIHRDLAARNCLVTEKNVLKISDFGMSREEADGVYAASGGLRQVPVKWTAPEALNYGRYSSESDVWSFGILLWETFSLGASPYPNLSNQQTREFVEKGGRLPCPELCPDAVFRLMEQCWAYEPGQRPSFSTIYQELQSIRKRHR

Sequence	SH2 binding enrichment (Grb2 SH2)	SH2 binding enrichment (SHP2-C SH2)	SH2 binding enrichment (c-Src SH2)	phosphorylation enrichment (c-Abl (mouse))	phosphorylation enrichment (FGFR3)	phosphorylation enrichment (EPHB1)	phosphorylation enrichment (Fes)	phosphorylation enrichment (Fyn)	phosphorylation enrichment (Hck)	phosphorylation enrichment (MERTK)	phosphorylation enrichment (Fer (mouse))	phosphorylation enrichment (EPHB2)	phosphorylation enrichment (c-Src)	phosphorylation enrichment (AncSZ)	phosphorylation enrichment (Jak2)	phosphorylation enrichment (FGFR1)
SDYYAYSPVQE [H6PD_Y449_R453Q]	1.01	0.971	1.3	8.16	14.9	16.4	0.952	8.25	6.3	9.08	10.7	21.6	5.44	6.17	9.08	15.8
TFRPPYFHRNC [HGD_Y333_YF]	1.1	1.41	1.09	0.635	0.771	0.522	0.869	0.473	0.661	1.03	0.626	0.946	0.454	0.733	0.717	0.617
EGLKVYINGTL [ADGRD1_Y183_V184I]	1.32	0.659	0.381	0.8	0.853	0.663	1.49	0.401	0.541	0.337	0.555	0.614	0.4	1.18	1.38	0.554
DVSKEYGHLLP [HRC_Y99]	0.76	0.581	0.425	0.747	0.833	0.743	1.09	0.624	0.801	0.59	0.656	0.608	0.836	0.852	0.687	0.551
KELANYFKLHH [AK7_Y390_YF]	0.945	0.949	0.516	0.439	0.83	0.727	0.877	0.567	0.486	0.545	0.442	0.537	0.481	0.644	1.68	1.15
SDVNKYSTAFG [GJB3_Y16_G12D]	0.777	0.553	0.617	0.509	0.459	0.467	0.67	0.42	0.386	0.393	0.462	0.387	0.361	0.521	0.451	0.348
DRPASYLDKVR [KRT17_Y98_L95P]	0.828	0.664	0.502	0.624	0.456	0.446	0.636	0.398	0.432	0.51	0.405	0.396	0.474	0.674	0.556	0.465
FQQLFYLLQIN [IQGAP2_Y890_T894I_YF]	1.14	1.1	0.889	1.06	1.01	0.82	1.76	0.541	0.617	0.611	0.658	0.815	0.639	1.51	1.47	0.648
FSGKAYADEER [CRIM1_Y826]	1	0.748	0.515	0.786	0.566	0.565	1.03	0.463	0.499	0.395	0.486	0.571	0.496	0.895	0.837	0.694

The next lines start with results.

SH2 binding enrichment (Grb2 SH2)	SH2 binding enrichment (SHP2-C SH2)	SH2 binding enrichment (c-Src SH2)	Sequence	phosphorylation enrichment (c-Abl (mouse))	phosphorylation enrichment (FGFR3)	phosphorylation enrichment (EPHB1)	phosphorylation enrichment (Fes)	phosphorylation enrichment (Fyn)	phosphorylation enrichment (Hck)	phosphorylation enrichment (MERTK)	phosphorylation enrichment (Fer (mouse))	phosphorylation enrichment (EPHB2)	phosphorylation enrichment (c-Src)	phosphorylation enrichment (AncSZ)	phosphorylation enrichment (Jak2)	phosphorylation enrichment (FGFR1)
0.619	0.49	0.432	HFECKYVINAI [MAOA_Y268_YF]	1.23	0.998	1.14	1.87	0.709	0.566	0.529	0.502	0.762	0.648	2.43	1.47	0.627
0.882	0.81	0.441	DQVEQYNKELE [LMNA_Y259_K260N]	0.692	0.762	0.683	1.23	0.558	0.581	0.418	0.494	0.672	0.459	1.09	1.17	0.552
0.865	0.656	0.463	ILGRTYFVNHE [NEDD4_Y627_YF]	0.735	0.605	0.526	0.854	0.392	0.379	0.355	0.429	0.398	0.467	0.83	0.758	0.43
0.688	0.598	0.483	PLDGEYFTLQV [TP53_Y327_I332V]	1.02	10.6	2.21	1.94	5.07	2.74	0.494	0.842	1.44	2.09	3.87	2.16	12.8
1.34	1.06	2.26	VYYDLYGGEKF [PTPN11_Y66_D61V]	0.918	12.8	4.34	1.13	5.88	6.07	8.55	2.99	7.34	5.53	2.05	2.2	15
2.13	0.706	1.04	EYYENYIEELK [PARP4_Y218_F215Y]	0.775	3.7	1.09	1.29	0.648	0.554	0.38	0.706	0.967	1.01	2.04	1.11	4.75
0.931	0.891	0.554	ESTPLYPMLFG [SCLY_Y280_F276S]	0.619	8.03	0.686	0.969	0.6	0.503	2.23	0.507	0.508	0.47	0.768	1.09	11.7
